According to patent US20150031601A1:

B1: SEQ ID NO: 23 (peptide)
peptide: GFCWYVCHYRNGVRVCYRRCN
B2: SEQ ID NO: 42 (peptide)
peptide: GFCWYVCVYRNGVRQCYRRCN
B3: SEQ ID NO: 439 (peptide)
peptide: GFCWRVCHYSNGKRVCYRRCN
B4: SEQ ID NO: 418 (peptide)
peptide: GFCWRACAYRNGVRACYRRCN
B5: SEQ ID NO: 435 (peptide)
peptide: GFCWRVCASRNGLRVCYRRCN
B6: SEQ ID NO: 24 (peptide)
peptide: GFCWYVCSYRNGVRVCYRRCN
B7: SEQ ID NO: 340 (peptide)
peptide: GFCWYACVYRNGKRACYRRCN
B8: SEQ ID NO: 41 (peptide)
peptide: GFCWYVCVYRNGVRNCYRRCN
B9: SEQ ID NO: 425 (peptide)
peptide: GFCWRVCAYSNGKRVCYRRCN
B10: SEQ ID NO: 39 (peptide)
peptide: GFCWYVCVYRNGVRHCYRRCN
B11: SEQ ID NO: 394 (peptide)
peptide: GFCWHVCARRNGARVCYRRCN
B12: SEQ ID NO: 362 (peptide)
peptide: GFCAHVCVKRNGARVCYRRCN
B13: SEQ ID NO: 450 (peptide)
peptide: GFCWYACAKRNGLRVCYRRCN
B14: SEQ ID NO: 320 (peptide)
peptide: GFCWRACVYRNGVRSCYRRCN
B15: SEQ ID NO: 316 (peptide)
peptide: GFCWRVCVYRNGVRSCHRRCN
B16: SEQ ID NO: 346 (peptide)
peptide: GFCWYTCVKRNGLRVCYRRCN
B17: SEQ ID NO: 319 (peptide)
peptide: GFCWRACVYRNGVRACYRRCN
B18: SEQ ID NO: 493 (peptide)
peptide: GFCGRVCVYKNGKRACYRRCN
B19: SEQ ID NO: 509 (peptide)
peptide: GFCWRVCVYSNGKRSCHRRCN
B20: SEQ ID NO: 44 (peptide)
peptide: GFCWYVCVYRNGVRSCYRRCN
B21: SEQ ID NO: 359 (peptide)
peptide: RFCWNVCVYRNGVRVCHRHCN
B22: SEQ ID NO: 36 (peptide)
peptide: GFCWYVCVYRNGSRVCYRRCN
B23: SEQ ID NO: 377 (peptide)
peptide: GFCFRSCVRRNGVRVCYRRCN
B24: SEQ ID NO: 390 (peptide)
peptide: GFCWHVCVYKNGKRSCYRRCN
B25: SEQ ID NO: 453 (peptide)
peptide: GFCWYVCARRNGLRSCYRRCN
B26: SEQ ID NO: 523 (peptide)
peptide: GFCWRVCAYKNGKRSCYRRCN
B27: antimicrobial peptide of SEQ ID NO: 2 (the parent antimicrobial peptide) (peptide)
peptide: GFCWYVCVYRNGVRVCYRRCN
B28: SEQ ID NO: 29 (peptide)
peptide: GFCWYVCVYRNGARVCYRRCN
B29: SEQ ID NO: 504 (peptide)
peptide: GFCWKVCARRNGARSCYRRCN
B30: SEQ ID NO: 381 (peptide)
peptide: GFCFRVCVKRNGVRKCYRRCN
B31: SEQ ID NO: 411 (peptide)
peptide: GFCWNVCAYRNGKRACYRRCN
B32: SEQ ID NO: 343 (peptide)
peptide: GFCWYACAYRNGVRACYRRCN
B33: SEQ ID NO: 386 (peptide)
peptide: GFCGRVCVYRNGKRACYRRCN
B34: SEQ ID NO: 33 (peptide)
peptide: GFCWYVCVYRNGPRVCYRRCN
B35: SEQ ID NO: 407 (peptide)
peptide: GFCWNACARRNGVRVCYRRCN
B36: SEQ ID NO: 28 (peptide)
peptide: GFCWYVCVRRNGVRVCYRRCN
B37: SEQ ID NO: 396 (peptide)
peptide: GFCWHVCSKRNGLRVCYRRCN
B38: SEQ ID NO: 335 (peptide)
peptide: GFCWRVCVRRNGVRVCHRRCN
B39: SEQ ID NO: 331 (peptide)
peptide: GFCWRVCSYRNGVRKCYRRCN
B40: SEQ ID NO: 417 (peptide)
peptide: GFCWRACAYRNGKRVCYRRCN
B41: SEQ ID NO: 38 (peptide)
peptide: GFCWYVCVYRNGVRGCYRRCN
B42: SEQ ID NO: 21 (peptide)
peptide: GFCWYVCAYRNGVRVCYRRCN
B43: SEQ ID NO: 25 (peptide)
peptide: GFCWYVCYYRNGVRVCYRRCN
B44: SEQ ID NO: 327 (peptide)
peptide: GFCWRVCHYRNSVRVCYRRCN
B45: SEQ ID NO: 3 (peptide)
peptide: GACWYVCVYRNGVRVCYRRCN
B46: SEQ ID NO: 30 (peptide)
peptide: GFCWYVCVYRNGGRVCYRRCN
B47: SEQ ID NO: 454 (peptide)
peptide: GFCWYVCVKRNGARKCHRRCN
B48: SEQ ID NO: 363 (peptide)
peptide: GFCARVCAKRNGVRVCYRRCN

Molecular target: serum proteins
Experiment: 90% serum, 30 kDa ultrafiltration, HPLC

Q: Which Protein binding (%) does the source give for B1 here?
A: 98%

Q: How did the Protein binding (%) turn out when B2 was run?
A: 96%

Q: For B3, which Protein binding (%) is on record?
A: 92%

Q: For B4, which Protein binding (%) is on record?
A: 92%

Q: For B5, which Protein binding (%) is on record?
A: 85%

Q: How did the Protein binding (%) turn out when B6 was run?
A: 85%

Q: With B7 as the binder, how does the Protein binding (%) read?
A: 98%

Q: With B8 as the binder, how does the Protein binding (%) read?
A: 97%

Q: B9 was tested. Which Protein binding (%) did it give?
A: 69%

Q: With B10 as the binder, how does the Protein binding (%) read?
A: 98%

Q: B11 was tested. Which Protein binding (%) did it give?
A: 80%

Q: B12 was tested. Which Protein binding (%) did it give?
A: 76%

Q: For B13, which Protein binding (%) is on record?
A: 98%

Q: With B14 as the binder, how does the Protein binding (%) read?
A: 88%

Q: Which Protein binding (%) does the source give for B15 here?
A: 90%

Q: B16 was tested. Which Protein binding (%) did it give?
A: 86%

Q: With B17 as the binder, how does the Protein binding (%) read?
A: 40%

Q: B18 was tested. Which Protein binding (%) did it give?
A: 77%

Q: For B19, which Protein binding (%) is on record?
A: 87%

Q: B20 was tested. Which Protein binding (%) did it give?
A: 85%

Q: How did the Protein binding (%) turn out when B21 was run?
A: 80%

Q: For B22, which Protein binding (%) is on record?
A: 60%

Q: B23 was tested. Which Protein binding (%) did it give?
A: 65%

Q: How did the Protein binding (%) turn out when B24 was run?
A: 87%

Q: With B25 as the binder, how does the Protein binding (%) read?
A: 92%

Q: With B26 as the binder, how does the Protein binding (%) read?
A: 90%

Q: Which Protein binding (%) does the source give for B27 here?
A: 99.5%

Q: For B28, which Protein binding (%) is on record?
A: 99%

Q: For B29, which Protein binding (%) is on record?
A: 95%

Q: For B30, which Protein binding (%) is on record?
A: 98%

Q: B31 was tested. Which Protein binding (%) did it give?
A: 86%

Q: Which Protein binding (%) does the source give for B32 here?
A: 74%

Q: Which Protein binding (%) does the source give for B33 here?
A: 81%

Q: For B34, which Protein binding (%) is on record?
A: 99%

Q: Which Protein binding (%) does the source give for B35 here?
A: 88%

Q: B36 was tested. Which Protein binding (%) did it give?
A: 92%

Q: B37 was tested. Which Protein binding (%) did it give?
A: 92%

Q: B38 was tested. Which Protein binding (%) did it give?
A: 95%

Q: Which Protein binding (%) does the source give for B39 here?
A: 95%

Q: How did the Protein binding (%) turn out when B40 was run?
A: 95%

Q: How did the Protein binding (%) turn out when B41 was run?
A: 93%

Q: With B42 as the binder, how does the Protein binding (%) read?
A: 98.5%

Q: B43 was tested. Which Protein binding (%) did it give?
A: 98%

Q: With B44 as the binder, how does the Protein binding (%) read?
A: 98%

Q: How did the Protein binding (%) turn out when B45 was run?
A: 86%

Q: How did the Protein binding (%) turn out when B46 was run?
A: 99%

Q: Which Protein binding (%) does the source give for B47 here?
A: 90%

Q: For B48, which Protein binding (%) is on record?
A: 80%
